From the nanobody polyreactivity screen of Harvey et al. (2022)

Experiment: yeast display, Sf9 membrane polyspecificity reagent, FACS + sequencing; frameworks hold sequencing errors
Outline: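 Nanobodies from a synthetic yeast display library (Saccharomyces cerevisiae BJ5465), induced 36–48 hours with galactose, were stained 1 hour at 4 °C with 10% biotinylated, detergent-solubilized Sf9 membrane reagent, enriched on streptavidin microbeads, then FACS-sorted. Anti-HA (expression) and streptavidin (reagent binding) fluorescence set low and high (top ~1%) gates. Polyreactivity labels come from the gate of origin. Genes were colony-PCR amplified, MiSeq 2 × 250 sequenced and filtered by CDR length.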
With “QVQLVESGGGLVQAGGSLRLSCAASGRTFWYYTMGWYRQAPGKERELVASITYRGGSTYYADSVKGRFTISRDNAKNNVYLQMNSLKPEDTAVYYCNARYKRYSYDYWGQGTQVTVSS” the “polyreactivity (PSR sort gate)” value was “high polyreactivity”. In the case of “QVQLVESGGGLVQAGGSLRLSCAASGRTFYANAMGWSRQAPGRERELVAAISTGGDGTYYADSVKGRFTISRDYAKITVYLQMNSLKPEDTAVYDCAVRHRASGILYYYWGQGTQVTVSS”, the “polyreactivity (PSR sort gate)” value is reported as “low polyreactivity”. With “QVQLVESGGGLVQAGGSLRLSCAASGRTFYANAMGWYRQAPGKERELVAAISSNGGSTYYADSVKGRFTISRDNAKNTVYLQMNSLKPEDTAVYYCAVVSRYKAWRKYDYWGQGTQVTVSS” the “polyreactivity (PSR sort gate)” value was “high polyreactivity”. For “QVQLVESGGGLVQAGGSLRLSCAASGRTFYAYAMGWSRQAPGKERELVAAITSGASTYYADSVKGRFTISRDNAKNTVYLQMNSLKPEDTAVYYCAKRVRYYKPGYDYWGQGTQVTVSS”, the “polyreactivity (PSR sort gate)” value was “low polyreactivity”. With “QVQLVESGGGLVQAGGSLRLSCAASGRTFYAYAMGWYRQAPGKERELVAAIRISGTSTYYADSVKGRFTISRDNAKNTVYLQMNSLKPEDTAVYYCARYVKLSGYGFYYWGQGTQVTVSS” the “polyreactivity (PSR sort gate)” value was “high polyreactivity”. In the case of “QVQLVESGGGLVQAGGSLRLSCAASGRTFYAYAMGWYRQAPGKERELVAVITRSGGRTNYADSVKGRFTISRDNAKNTVYLQMNSLKPEDTAVYYCAARADWRQVSFYYWGQGTQVTVSS”, the “polyreactivity (PSR sort gate)” value is reported as “high polyreactivity”. With “QVQLVESGGGLVQAGGSLRLSCAASGRTFYDNAMGWYRQAPGKERELVAAITKSGGRTYYADSVKGRFTISRDNAKNTVYLQMNSLKPEDTAVYYCAASWPNYLYEYWGQGTQVTVSS” the “polyreactivity (PSR sort gate)” value was “high polyreactivity”. For “QVQLVESGGGLVQAGGSLRLSCAASGRTFYDYAMGWYREAPGKEMELVASIRGSDGSTYYADSVKGRFTISRDKAKNTVYLQMNSLKPEDTSVYYCAARGFYGTNGRVYITSYYYLGQGTQVTVSS”, the “polyreactivity (PSR sort gate)” value was “high polyreactivity”. For “QVQLVESGGGLVQAGGSLRLSCAASGRTFYDYAMGWYRQAPGKERELVAAITYSGGSTFYADSVKGRFTISRDNAKNTVYLQMNSLKPEDTAVYYCAAEVLLLVGAAEYDYWGQGTQVTVSS”, the “polyreactivity (PSR sort gate)” value was “low polyreactivity”. For “QVQLVESGGGLVQAGGSLRLSCAASGRTFYDYAMGWYRQAPGKESEFVAAITDRDASTSYADSVKGRFTISRDNAKNTVYLQMNSLKPEDTAVYYCAADQYWYKPYVGELYDYDYWGQGTQVTVSS”, the “polyreactivity (PSR sort gate)” value was “low polyreactivity”. For “QVQLVESGGGLVQAGGSLRLSCAASGRTFYDYARGWYRQGPGKERELVAAITSGGSTNYADSVKGRFTISRDNAKNTVYLQMNSLKPEDTAVYYCAADDCYVWGFDMNYWGQGTQVTVSS”, the “polyreactivity (PSR sort gate)” value was “high polyreactivity”. In the case of “QVQLVESGGGLVQAGGSLRLSCAASGRTFYEYAMGWYRQAPGKERELVAGITSGGSTNYADSVKGRFTISRDNAKNTVYLQMNSLKPEDTAVYYCDASYWGYEYDYWGQGTQVTVSS”, the “polyreactivity (PSR sort gate)” value is reported as “low polyreactivity”. With “QVQLVESGGGLVQAGGSLRLSCAASGRTFYFNAMGWYRQAPRKESELVAAISSGASTYYADSVKGRFTISRDNAKNTVNLQMISLKPEDTAVYYCAAEFWTQWSGYEYWGQGTQVTVSS” the “polyreactivity (PSR sort gate)” value was “high polyreactivity”. For “QVQLVESGGGLVQAGGSLRLSCAASGRTFYFNTLGWERQAPGKERELVAAISSGVNTYYADSVKGRFTISRDNAKTTVYLQMNSLKPEDTAVYYCNADYIHTGDYLWYFLYDYWGQGTQVTVSS”, the “polyreactivity (PSR sort gate)” value was “high polyreactivity”. With “QVQLVESGGGLVQAGGSLRLSCAASGRTFYFYAMGWYRQAPGKERELVAAITSRVGRTYYADSVKGRFTISRDTAKNTVYLQMNSLKPEDTAVYDCAAEGVYRMGYWGQGTQVTVSS” the “polyreactivity (PSR sort gate)” value was “high polyreactivity”. With “QVQLVESGGGLVQAGGSLRLSCAASGRTFYFYVMGWYRQAPGKERELVASITSGGSTNYADSVKGRFTISRDNAKNTVYLQMNSLKPEDTAVYYCAAALPASTSGTQPYDYWGQGTQVTVSS” the “polyreactivity (PSR sort gate)” value was “low polyreactivity”. With “QVQLVESGGGLVQAGGSLRLSCAASGRTFYGNAMGWYRQAPGKERELVAAITSGGGSTRYADSVKGRFTISRDNAKNSVYLQMNSLKPEDTAVYYCAALYWYEYTYLEYDYWGQGTQVTVSS” the “polyreactivity (PSR sort gate)” value was “high polyreactivity”. For “QVQLVESGGGLVQAGGSLRLSCAASGRTFYGNAMGWYRQAPGKERELVAAITSGGGSTRYADSVKGRFTISRDNAKNTVYLQMNSLKPEDTAVYYCNATLGNFGYRRYSGHTRYYYWGQGTQVTVSS”, the “polyreactivity (PSR sort gate)” value was “high polyreactivity”. With “QVQLVESGGGLVQAGGSLRLSCAASGRTFYGYAMGWYRQAPGKERELVAAISRRGGSTNYADSVKGRFTISRDNAQTTVYLQMNSLKPEDTAVYYCNKVVPHKPPTMDYWGQGTQVTVSS” the “polyreactivity (PSR sort gate)” value was “high polyreactivity”. With “QVQLVESGGGLVQAGGSLRLSCAASGRTFYGYAMGWYRQAPGKERELVAGITFRGSSTYYADSVKGRFTISRDNAKNTVYLQMNSLKPEDTAVYYCNVPYGNSHVGYDYWGQGTQVTVSS” the “polyreactivity (PSR sort gate)” value was “high polyreactivity”. For “QVQLVESGGGLVQAGGSLRLSCAASGRTFYGYAMGWYRQAPGKERELVASISRDGSTNYADSVKGRFTISRDNAKNTVYLQMNSLKPEDTAVYYCAGDIWYYRYPIYYYSYDYWGQGTQVTVSS”, the “polyreactivity (PSR sort gate)” value was “low polyreactivity”. For “QVQLVESGGGLVQAGGSLRLSCAASGRTFYGYTMGWYRQAPGKERELDAAIRTSGGSTYADSVKGRFTISRDNAKNTVYLQMNSLKPEDTAVYYCAAPRVVYYGTAPAYRYDYWGQGTQVTVSS”, the “polyreactivity (PSR sort gate)” value was “high polyreactivity”. With “QVQLVESGGGLVQAGGSLRLSCAASGRTFYIYAMGWYRQAPGKERELVAAITWRGGRTYYADSVKGRFTISRDNAKNTVYLQMNSLKPEDTAVYYCAARTGQGPLYNHWGQGTQVTVSS” the “polyreactivity (PSR sort gate)” value was “high polyreactivity”. With “QVQLVESGGGLVQAGGSLRLSCAASGRTFYIYAMGWYRQAPGTERELVAAITGCGGSTYYADSVKGRFTISRDNAKNTVYLQMNSLKPEDTAVYYCAAGFYGDGYTQGYGYWGQGTQVTVSS” the “polyreactivity (PSR sort gate)” value was “low polyreactivity”. For “QVQLVESGGGLVQAGGSLRLSCAASGRTFYKNAMGWYRQAPGKERELVAAISSRGGRTTYADSVKGRFTISRDNAKNTVYLQMNSLKPEDTAVYYCATDWAQVYHGTTKYYYWGQGTQVTVSS”, the “polyreactivity (PSR sort gate)” value was “high polyreactivity”. With “QVQLVESGGGLVQAGGSLRLSCAASGRTFYKNTMGWYRQAPGKERELVAGISQRGGRTYYADSVKGRFTISRDNAKNTVYLQMNSLKPEDTAVYYCAADRYSYGSNGYPRFEYYYWGQGTQVTVSS” the “polyreactivity (PSR sort gate)” value was “high polyreactivity”. In the case of “QVQLVESGGGLVQAGGSLRLSCAASGRTFYKNTMGWYRQAPGKERELVATITRRGGTTYYADSVKGRFTISRDKAKNTVYLQMNSLKPEDTAVYYCAKDASTEKYDYWGQGTQVTVSS”, the “polyreactivity (PSR sort gate)” value is reported as “low polyreactivity”. In the case of “QVQLVESGGGLVQAGGSLRLSCAASGRTFYKYALGWYRQAPGKERELVAAITSGGSTNYADSVKGRFTISRDNAKYTVYLQMNSLKPEDTAVYYCNASFEENFPFGDYDYWGQGTQVTGSS”, the “polyreactivity (PSR sort gate)” value is reported as “high polyreactivity”. With “QVQLVESGGGLVQAGGSLRLSCAASGRTFYKYGMGWYRQAPGKERELVAAISWRTTSTYYADSVKGRFTISRDNAKNTVYLQMNSLKPEDTAVYYCNARRYLYFYGRGAQELDYWGQGTQVTVSS” the “polyreactivity (PSR sort gate)” value was “high polyreactivity”. For “QVQLVESGGGLVQAGGSLRLSCAASGRTFYKYGMGWYRQAPGKERELVARINSNGGSTYYADSVKGRFTISRDNAKNTVYLQMNSLKPEDTAVYYCAKRGSYRTKPASEYDSWGQGTQVTVSS”, the “polyreactivity (PSR sort gate)” value was “low polyreactivity”. For “QVQLVESGGGLVQAGGSLRLSCAASGRTFYLNAMGWYRQAPGKEREFVARITWSGGSTYYADSVKGRFTISRDNAKNTVYLQMNSLKPEDTAVYYCIRLSSYHMDYWGQGTQVTVSS”, the “polyreactivity (PSR sort gate)” value was “high polyreactivity”.
